Results taken from PMC12313985.

Key:
[1] = target: PKA-phosphorylated full-length human Tau (PKA-Tau) (human) (UniProt P10636)
[2] = target: Fluorescein (FITC)-labelled bi-phospho Tau peptide pS2 (Tau^210–222-…-Tau^318–331) (human); assay: fluorescence polarisation; 14-3-3ζ titrated (twofold series from 400 μM) into 10 nM fluorescein-labelled peptide; 10 mM HEPES pH 7.4, 150 mM NaCl, 50 µM TCEP, 0.1% Tween20, 0.1% BSA; room temperature; 4PL fit
Chain of Fluorescein (FITC)-labelled bi-phospho Tau peptide pS2 (Tau^210–222-…-Tau^318–331) (human) (peptide, as listed by the source): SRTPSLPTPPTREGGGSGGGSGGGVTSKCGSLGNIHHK

Chain of PKA-phosphorylated full-length human Tau (PKA-Tau) (human) (P10636 other isoform, or with tags, fused parts or gaps): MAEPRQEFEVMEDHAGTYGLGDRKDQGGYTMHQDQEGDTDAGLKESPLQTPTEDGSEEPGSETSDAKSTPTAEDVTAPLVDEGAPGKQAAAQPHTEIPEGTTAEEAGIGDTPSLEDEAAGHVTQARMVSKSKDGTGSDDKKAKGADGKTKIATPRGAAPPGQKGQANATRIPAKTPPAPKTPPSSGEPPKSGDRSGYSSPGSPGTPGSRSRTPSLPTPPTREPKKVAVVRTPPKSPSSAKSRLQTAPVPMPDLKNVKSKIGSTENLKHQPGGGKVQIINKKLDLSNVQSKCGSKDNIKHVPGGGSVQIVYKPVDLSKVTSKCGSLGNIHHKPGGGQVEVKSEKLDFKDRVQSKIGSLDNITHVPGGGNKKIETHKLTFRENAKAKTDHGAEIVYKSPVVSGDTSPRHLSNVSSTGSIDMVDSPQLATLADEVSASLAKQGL

FRAP mobile fractions in PKA-Tau:14-3-3ζ condensates [1]: 50%
Kd [2]: 1000 nM
Substance: 14-3-3 protein zeta (14-3-3ζ) (from UniProt P63104 1-245) (natural protein)
